Target: CC CKR2B stably expressed on HEK-293 cells (Example 10A) (human) (UniProt P41597)
Experiment: cell-based or functional assay

CC CKR2B stably expressed on HEK-293 cells (Example 10A) (human), sequence (P41597 whole entry): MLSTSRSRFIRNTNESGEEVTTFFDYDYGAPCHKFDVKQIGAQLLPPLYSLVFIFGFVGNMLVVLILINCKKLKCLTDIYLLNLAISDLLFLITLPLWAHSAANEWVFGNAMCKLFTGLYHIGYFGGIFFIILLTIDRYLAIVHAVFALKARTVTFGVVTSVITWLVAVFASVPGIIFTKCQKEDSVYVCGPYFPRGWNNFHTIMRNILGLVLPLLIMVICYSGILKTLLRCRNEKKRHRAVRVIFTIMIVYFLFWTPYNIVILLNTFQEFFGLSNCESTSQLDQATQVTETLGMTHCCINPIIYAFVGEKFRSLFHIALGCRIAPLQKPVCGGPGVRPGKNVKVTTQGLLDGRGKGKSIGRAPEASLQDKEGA

half-maximal effective concentration of calcium flux: 15 nM
saturation of calcium flux response: 100 nM
Substance: recombinant human MCP-4 with the mature N-terminal Gln (PeproTech), Q99616 24-98 (ligand)

— patent US6673915
